According to FireProtDB (doi:10.1021/bi00009a035):

Cytochrome c isoform 1 K79V, P00044, sequence (P00044 whole entry K79V, canonical isoform): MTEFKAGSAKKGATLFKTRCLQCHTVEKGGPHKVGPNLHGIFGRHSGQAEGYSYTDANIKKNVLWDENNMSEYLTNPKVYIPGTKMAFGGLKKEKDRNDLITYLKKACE
Cytochrome c isoform 1 K79G, P00044, sequence (P00044 whole entry K79G, canonical isoform): as the sequence (P00044 whole entry K79V, canonical isoform) above, with V79G counted along it
Cytochrome c isoform 1 K79I, P00044, sequence (P00044 whole entry K79I, canonical isoform): as the sequence (P00044 whole entry K79V, canonical isoform) above, with V79I counted along it
Cytochrome c isoform 1 K79R, P00044, sequence (P00044 whole entry K79R, canonical isoform): as the sequence (P00044 whole entry K79V, canonical isoform) above, with V79R counted along it
Cytochrome c isoform 1 K79L, P00044, sequence (P00044 whole entry K79L, canonical isoform): as the sequence (P00044 whole entry K79V, canonical isoform) above, with V79L counted along it
Cytochrome c isoform 1 wild type, P00044, sequence (P00044 whole entry, canonical isoform): as the sequence (P00044 whole entry K79V, canonical isoform) above, with V79K counted along it
Cytochrome c isoform 1 K79A, P00044, sequence (P00044 whole entry K79A, canonical isoform): as the sequence (P00044 whole entry K79V, canonical isoform) above, with V79A counted along it

Details: Saccharomyces cerevisiae (strain ATCC 204508 / S288c); pH 7.5; 25 °C; GdnHCl; CD; Tris-HCl 20 mM; NaCl 40 mM; reversible: yes (94-100%)
In the case of “Cytochrome c isoform 1 wild type, P00044”, the denaturant m value was 4.87 kcal/mol/M, the “denaturant midpoint (higher = more stable)” value (“denaturant midpoint” for short) was 1.16 M and the unfolding free energy was 5.66 kcal/mol.

Same assay, conditions: Saccharomyces cerevisiae (strain ATCC 204508 / S288c); pH 7.5; 25 °C; GdnHCl; CD; Tris-HCl 20 mM; NaCl 40 mM; reversible: yes (94-100%); structure 1YCC
With Cytochrome c isoform 1 K79V, P00044 the “ddG of mutation (higher = less stable)” value was 1.38 kcal/mol, the denaturant m value was 4.01 kcal/mol/M and the “denaturant midpoint” value was 1.07 M. The unfolding free energy was 4.28 kcal/mol. In the case of Cytochrome c isoform 1 K79I, P00044, the “ddG of mutation (higher = less stable)” value was 1.19 kcal/mol, the denaturant m value was 4.29 kcal/mol/M and the “denaturant midpoint” value was 1.04 M. It also gave an unfolding free energy of 4.47 kcal/mol. With Cytochrome c isoform 1 K79R, P00044 the “ddG of mutation (higher = less stable)” value was 0.03 kcal/mol, the denaturant m value was 5.25 kcal/mol/M and the “denaturant midpoint” value was 1.07 M. For the same substance, the unfolding free energy was 5.63 kcal/mol. With Cytochrome c isoform 1 K79A, P00044 the “ddG of mutation (higher = less stable)” value was 0.45 kcal/mol, the denaturant m value was 4.44 kcal/mol/M and the “denaturant midpoint” value was 1.17 M. It also gave an unfolding free energy of 5.21 kcal/mol. For Cytochrome c isoform 1 K79L, P00044, the “ddG of mutation (higher = less stable)” value was 0.03 kcal/mol, the denaturant m value was 4.98 kcal/mol/M and the “denaturant midpoint” value was 1.13 M. The unfolding free energy was 5.63 kcal/mol. In the case of Cytochrome c isoform 1 K79G, P00044, the “ddG of mutation (higher = less stable)” value was 0.74 kcal/mol, the denaturant m value was 4.58 kcal/mol/M and the “denaturant midpoint” value was 1.07 M. For the same substance, the unfolding free energy was 4.92 kcal/mol.
